Numbering of substitutions follows the chain as printed. Like-named read-outs stand apart in the source and are kept apart here.
Assays:
[1] = molecular target: T1, soluble human FcRn (complex of FcRn and β2-microglobulin) (human, UniProt P55899 24-290; P16213 21-119); assay: SPR (Biacore 3000), antibody captured on Protein L or anti-human kappa chain antibody, human FcRn as analyte, pH 6.0, steady state affinity
T1 construct: also called hFcRn; copies: 1 + 1
Method: (§1) The binding to human FcRn was assessed using Biacore 3000. An antibody was bound to Protein L or rabbit anti-human IgG Kappa chain antibody immobilized onto a sensor chip, human FcRn was added as an analyte for interaction with the antibody, and the affinity (KD) was calculated from the amount of bound human FcRn. Specifically, Protein L or rabbit anti-human IgG Kappa chain antibody was immobilized onto sensor chip CM5 (Biacore) by the amine coupling method using 50 mM Na-phosphate buffer (pH 6.0) containing 150 mM NaCl as the running buffer. Then, an antibody was diluted with a running buffer containing 0.02% Tween20, and injected to be bound to the chip. Human FcRn was then injected and the binding activity of the human FcRn to antibody was assessed.
(§2) The affinity was computed using BlAevaluation Software. The obtained sensorgram was used to calculate the amount of hFcRn bound to the antibody immediately before the end of human FcRn injection. The affinity of the antibody for human FcRn was calculated by fitting with the steady state affinity method.

[2] = molecular target: T1, soluble human FcRn (complex of FcRn and …); assay: SPR (Biacore 3000), human FcRn as analyte, pH 6.0
[3] = molecular target: T1, soluble human FcRn (complex of FcRn and …); assay: SPR (Biacore 3000), antibody captured on Protein L or anti-human kappa chain antibody, human FcRn as analyte, pH 6.0, steady state affinity; remark: listed apart in the source
Method: as §1, §2

[4] = molecular target: T2, SR344 (N-terminal 1st to 344th amino acids of soluble human IL-6R) (human, UniProt P08887 20-344, limits assumed); assay: SPR (Biacore T100), antibody captured on anti-IgG (γ-chain specific) F(ab')2, SR344 as analyte, pH 7.4, 37 C
T2 construct: also called recombinant soluble IL-6 receptor; soluble human IL-6 receptor
T2 sequence (looked up): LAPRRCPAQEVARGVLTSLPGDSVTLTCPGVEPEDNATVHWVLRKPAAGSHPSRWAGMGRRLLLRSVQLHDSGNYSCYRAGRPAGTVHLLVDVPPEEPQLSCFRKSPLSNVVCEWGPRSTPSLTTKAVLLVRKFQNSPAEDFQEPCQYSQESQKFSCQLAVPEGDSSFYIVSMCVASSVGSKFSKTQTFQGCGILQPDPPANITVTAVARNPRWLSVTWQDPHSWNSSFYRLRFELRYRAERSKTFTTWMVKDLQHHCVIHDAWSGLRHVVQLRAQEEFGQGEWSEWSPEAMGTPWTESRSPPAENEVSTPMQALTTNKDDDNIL
Method: Antigen-antibody reaction kinetics was analyzed using Biacore T100 (GE Healthcare). The SR344-antibody interaction was measured by immobilizing appropriate amounts of anti-IgG (γ-chain specific) F(ab′)2 onto a sensor chip by amine coupling method, binding antibodies of interest onto the chip at pH 7.4, and then flowing IL-6 receptor SR344 adjusted to be various concentrations at pH 7.4 over the chip as an analyte. All measurements were carried out at 37° C. The kinetic parameters, association rate constant kₐ (1/Ms) and dissociation rate constant kd (1/s) were calculated from the sensorgrams obtained by measurement. Then, KD (M) was determined based on the rate constants. The respective parameters were determined using Biacore T100 Evaluation Software (GE Healthcare).

[5] = molecular target: T2, SR344 (N-terminal 1st to 344th amino …); assay: SPR (Biacore T100), SR344 as analyte, 37 C
[6] = molecular target: T2, SR344 (N-terminal 1st to 344th amino …); assay: SPR (Biacore T100), antibody captured on Protein A, soluble human IL-6 receptor as analyte
Method: The antigen-antibody reaction kinetics between anti-human IL-6 receptor antibody and soluble human IL-6 receptor was analyzed using Biacore T100 (GE Healthcare Biosciences). The antigen-antibody interaction was measured by immobilizing rec-Protein A (Zymed) (hereinafter “Protein A”) onto a sensor chip, capturing an antibody with the immobilized Protein A, and then reacting the antibody with the antigen as an analyte using a method known to those skilled in the art. The running buffer used was HBS-EP+, and the flow rate was 20 μl/min. Each antibody was prepared so that about 100 RU of the antibody was bound to Protein A/G. Soluble human IL-6 receptor was prepared at 0, 0.065, 0.131, and 0.261 μg/ml using HBS-EP+ and used as an analyte. In the first step of the measurement, the antibody in solution was bound to Protein A/G, and the analyte solution was allowed to interact with the antibody. After three minutes of interaction, the solution was switched to HBS-EP+, and the dissociation phase was monitored for 10 or 15 minutes. After measurement of the dissociation phase, the sensor chip was regenerated by washing with 10 μl of 10 mM glycine-HCl (pH 1.5). The association, dissociation, and regeneration constitute one analysis cycle. Each antibody was measured according to this cycle. The obtained sensorgrams were kinetically analyzed using the Biacore-specific data analysis software, Biacore T100 Evaluation Software (GE Healthcare Biosciences).

[7] = molecular target: T2, SR344 (N-terminal 1st to 344th amino …); assay: SPR (Biacore T100), Protein A/G capture, SR344 at 0, 0.36 and 1.4 µg/ml, 15 min dissociation, 37 C
[8] = molecular target: T2, SR344 (N-terminal 1st to 344th amino …); assay: SPR (Biacore T100), antibody captured on Protein A/G, SR344 as analyte, 37 C
Method: (§3) This measurement was carried out under the same conditions described in Example 2. The running buffer used was HBS-EP+, and the flow rate was 20 μl/min. Each antibody was prepared so that about 100 RU of the antibody was bound to Protein A/G. SR344 was prepared at 0, 0.065, 0.131, and 0.261 μg/ml using HBS-EP+ and used as an analyte. In the first step of the measurement, the antibody in solution was bound to Protein A/G, and the analyte solution was allowed to interact therewith. After three minutes of interaction, the solution was switched to HBS-EP+, and the dissociation phase was monitored for 10 or 15 minutes. After measurement of the dissociation phase, the sensor chip was regenerated by washing with 10 μl of 10 mM glycine-HCl (pH 1.5). The association, dissociation, and regeneration constitute one analysis cycle. Each antibody was measured according to this cycle.
The sensorgram was kinetically analyzed using the Biacore-specific data analysis software, Biacore T100 Evaluation Software.

[9] = molecular target: T2, SR344 (N-terminal 1st to 344th amino …); assay: as above; remark: listed apart in the source
[10] = molecular target: T2, SR344 (N-terminal 1st to 344th amino …); assay: SPR (Biacore T100), Protein A/G capture, SR344 at 0, 0.36 and 1.4 µg/ml, 15 min dissociation, 37 C; remark: listed apart in the source
Method: as §3
The Tm of purified H96/PF1L-IgG1 was determined by the method described in Example 5. The affinity measurement was carried out under essentially the same conditions used in Example 5. Note that the concentration of SR344 was adjusted to 0, 0.36, and 1.4 μg/ml, and the dissociation phase was monitored for 15 minutes.

T1 sequence (P55899 24-290 limits assumed, chain 1 of 2): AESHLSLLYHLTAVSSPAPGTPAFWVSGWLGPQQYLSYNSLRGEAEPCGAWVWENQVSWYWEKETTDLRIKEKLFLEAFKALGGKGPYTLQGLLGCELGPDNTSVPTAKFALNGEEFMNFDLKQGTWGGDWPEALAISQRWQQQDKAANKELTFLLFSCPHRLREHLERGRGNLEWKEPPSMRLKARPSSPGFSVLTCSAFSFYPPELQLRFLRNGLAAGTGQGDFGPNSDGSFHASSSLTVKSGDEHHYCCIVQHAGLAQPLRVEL
T1 sequence (P16213 21-119 limits assumed, chain 2 of 2): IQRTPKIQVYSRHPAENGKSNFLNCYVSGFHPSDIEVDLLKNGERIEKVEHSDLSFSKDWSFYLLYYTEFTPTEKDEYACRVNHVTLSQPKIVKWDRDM

B1: WT-M58 (antibody)
heavy: QVQLQESGPGLVRPSQTLSLTCTVSGYSITSDHAWSWVRQPPGRGLEWIGYISYSGITTYNPSLKSRVTMLRDTSKNQFSLRLSSVTAADTAVYYCARSLARTTAMDYWGQGSLVTVSSASTKGPSVFPLAPSSKSTSGGTAALGCLVKDYFPEPVTVSWNSGALTSGVHTFPAVLQSSGLYSLSSVVTVPSSNFGTQTYTCNVDHKPSNTKVDKTVERKSCVECPPCPAPPVAGPSVFLFPPKPKDTLMISRTPEVTCVVVDVSQEDPEVQFNWYVDGVEVHNAKTKPREEQFNSTFRVVSVLTVVHQDWLNGKEYKCKVSNKGLPAPIEKTISKTKGQPREPQVYTLPPSQEEMTKNQVSLTCLVKGFYPSDIAVEWESNGQPENNYKTTPPMLDSDGSFFLYSKLTVDKSRWQEGNVFSCSVMHEALHNHYTQKSLSLSP
light: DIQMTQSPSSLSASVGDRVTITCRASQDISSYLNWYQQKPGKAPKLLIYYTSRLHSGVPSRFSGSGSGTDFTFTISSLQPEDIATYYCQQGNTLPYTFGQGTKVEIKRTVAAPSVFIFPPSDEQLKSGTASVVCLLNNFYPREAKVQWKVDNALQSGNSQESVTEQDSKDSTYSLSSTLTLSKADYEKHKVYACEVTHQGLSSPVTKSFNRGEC
notes: also called M58 (WT)
Question: Which Kd [1] does the source give for B1 here?
Answer: 1170 nM

Question: What about the “binding activity relative to WT-IgG1” value [2] of the same binder?
Answer: ~1.4 fold

Question: What about the Kd [3] of the same binder?
Answer: 1030 nM

B2: WT-M73 (antibody)
heavy: B1 heavy with N432A
light: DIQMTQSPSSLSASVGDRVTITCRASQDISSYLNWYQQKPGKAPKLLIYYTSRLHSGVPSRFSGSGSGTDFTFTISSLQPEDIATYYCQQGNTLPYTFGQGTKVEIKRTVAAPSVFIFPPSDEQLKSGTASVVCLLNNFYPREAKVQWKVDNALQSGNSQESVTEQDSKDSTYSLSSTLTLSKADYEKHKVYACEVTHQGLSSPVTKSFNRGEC
Question: How did the Kd [1] turn out when B2 was run?
Answer: 420 nM

Question: And the “binding activity relative to WT-IgG1” value [2]?
Answer: ~3.8 fold

B3: anti-IL-31 receptor antibody H0L0 with M58 constant region (antibody)
heavy: QVQLVQSGAEVKKPGASVKVSCKASGYTFTGYIMNWVRQAPGQGLEWMGLINPYNGGTSYNQKFKGRVTITADESTSTAYMELSSLRSEDTAVYYCARDGYDDGPYTMDYWGQGTLVTVSASTKGPSVFPLAPSSKSTSGGTAALGCLVKDYFPEPVTVSWNSGALTSGVHTFPAVLQSSGLYSLSSVVTVPSSNFGTQTYTCNVDHKPSNTKVDKTVERKSCVECPPCPAPPVAGPSVFLFPPKPKDTLMISRTPEVTCVVVDVSQEDPEVQFNWYVDGVEVHNAKTKPREEQFNSTFRVVSVLTVVHQDWLNGKEYKCKVSNKGLPAPIEKTISKTKGQPREPQVYTLPPSQEEMTKNQVSLTCLVKGFYPSDIAVEWESNGQPENNYKTTPPMLDSDGSFFLYSKLTVDKSRWQEGNVFSCSVMHEALHNHYTQKSLSLSP
VL: DIQMTQSPSSLSASVGDRVTITCRTSENIYSFLAWYQQKPGKAPKLLIYNAKTLAKGVPSRFSGSGSGTDFTLTISSLQPEDFATYYCQHHYESPLTFGGGTKVEIK
notes: also called H0L0 (M58)
Question: Which Kd [3] does the source give for B3 here?
Answer: 910 nM

B4: Fv3-M73 (antibody, V domains shown)
VH: QVQLQESGPGLVKPSETLSLTCAVSGHSISHDHAWSWVRQPPGEGLEWIGFISYSGITNYNPTLQGRVTISRDNSKNTLYLQMNSLRAEDTAVYYCARSLARTTAMDYWGEGTLVTVSS
VL: DIQMTQSPSSLSASVGDSVTITCQASRDISSHLNWYQQKPGKAPELLIYYGSHLLSGVPSRFSGSGSGTDFTFTISSLEAEDAATYYCGQGNRLPYTFGQGTKVEIER
notes: also called VH4-M73/VL1-kappa
Question: B4 was tested. Which Kd [4] did it give?
Answer: 1 nM

Question: And the koff [4]?
Answer: 0.00087 s⁻¹

Question: And the kon [4]?
Answer: 850000 M⁻¹ s⁻¹

Question: What about the “fold higher affinity than TOCILIZUMAB” value [5] of the same binder?
Answer: 3 fold

B5: Fv4-M73 (antibody, V domains shown)
VH: B4 VH with T63S
VL: B4 VL with R27T
notes: also called VH3-M73/VL3-kappa
Question: For B5, which Kd [4] is on record?
Answer: 1.4 nM

Question: What about the koff [4] of the same binder?
Answer: 0.001 s⁻¹

Question: What about the kon [4] of the same binder?
Answer: 750000 M⁻¹ s⁻¹

Question: And the “fold higher affinity than TOCILIZUMAB” value [5]?
Answer: 2 fold

B6: 6R_a_H1L1 (antibody, human IgG1, kappa, V domains shown)
VH: QVQLQESGPGLVRPSQTLSLTCTVSGYSITSDHAWSWVRQPPGRGLEWIGYISYSGITTYNPSLKSRVTMLRDTSKNQFSLRLSSVTAADTAVYYCARVLARITAMDYWGQGSLVTVSS
VL: DIQMTQSPSSLSASVGDRVTITCRASQDISSYLNWYQQKPGKAPKLLIYYTSRLHSGVPSRFSGSGSGTDFTFTISSLQPEDIATYYCGQGNRLPYTFGQGTKVEIKR
notes: Anti-human IL-6 receptor antibody
Question: How did the Kd [6] turn out when B6 was run?
Answer: 0.067 nM

B7: 6R_a_H2L2 (antibody, human IgG1, kappa, V domains shown)
VH: QVQLQESGPGLVKPSETLSLTCAVSGYSISDDHAWSWVRQPPGEGLEWIGYISYSGITNYNPSLKGRVTISRDTSKNQFSLKLSSVTAADTAAYYCARVLARITAMDYWGEGTLVTVSS
VL: B4 VL with R27Q, H32Y, H53E, L55H
Question: For B7, which Kd [6] is on record?
Answer: 0.03 nM

B8: 6R_a_H3L3 (antibody, human IgG1, kappa, V domains shown)
VH: B4 VH with H27Y, H31D, F51Y, T63S, G66D, S99L, T103A, E111Q, T113I
VL: B4 VL with R27E, H32Y, H53E, L55E
Question: B8 was tested. Which Kd [6] did it give?
Answer: 0.052 nM

B9: PF1 antibody (antibody, IgG1, V domains shown)
VH: B7 VH
VL: DIQMTQSPSSLSASVGDSVTITCQASQDISSYLNWYQQKPGKAPELLIYYGSELHSGVPSRFSGSGSGTDFTFTISSLEAEDAATYYCGQGNRLPYTFGQGTKVEIE
notes: also called PF1-IgG1; PF1_H/PF1_L
Question: Which Kd [7] does the source give for B9 here?
Answer: 0.03 nM

Question: And the koff [7]?
Answer: 4.4e-05 s⁻¹

Question: And the kon [7]?
Answer: 1.5e+06 M⁻¹ s⁻¹

Question: And the Kd [8]?
Answer: 0.027 nM

Question: What about the koff [8] of the same binder?
Answer: 3.5e-05 s⁻¹

Question: What about the kon [8] of the same binder?
Answer: 1.3e+06 M⁻¹ s⁻¹

Question: What about the “fold improved affinity against WT” value [9] of the same binder?
Answer: ~150 fold

Question: And the Kd [10]?
Answer: 0.031 nM

Question: And the koff [10]?
Answer: 4.2e-05 s⁻¹

Question: What about the kon [10] of the same binder?
Answer: 1.4e+06 M⁻¹ s⁻¹
